In PMC7846482 (The Journal of Biological Chemistry, 2021):

Tests used:
Settings in all cases: both partners purified
[1] = molecular target: T1, SARS-CoV-2 spike receptor-binding domain (RBD) glycoprotein from the mammalian expression system (SARS-CoV-2 Wuhan-Hu-1, UniProt P0DTC2); test: ELISA
[2] = molecular target: T1, SARS-CoV-2 spike receptor-binding …; test: western blotting
[3] = molecular target: T1, SARS-CoV-2 spike receptor-binding …; test: co-IP

Binder	binding result [2]	binding result [3]	other results
mouse anti-SARS-CoV-2 spike monoclonal antibody clone R15 (antibody, V domains shown) VH: QIQLVQSGPELKKPGETVKISCKASGYTFTKYGINWVKQAPGKDLKWMGWINTYTGEPAYGDDFKGRFAFSLETSTNTAYLQINNFKNEDTATYFCARNGAMDYWGQGTSVTVSS VL: not shown			binding result [1]: binds
mouse anti-SARS-CoV-2 spike monoclonal antibody clone R22 (antibody, V domains shown) VH: EVQLQQSGPELVRPGASVKISCKTSGYTFTEYIIHWVKQSHGKSLEWIGGIDPNNGDTSYNQKFKGKASLTVDKSSSTAYMELRSLTSDDSAVYYCARLDFDYWGQGTTLTVSS VL: DIVMTQSHKFMSTSVGDRVSITCKASQDVRTAVAWYQQKPGQSPKLLIYWASTRYTGVPDRFTGSGSGTDYTLTISSVQAEDLALYYCQQHDSTPLTFGAGTKLELK	binds		
mouse anti-SARS-CoV-2 spike monoclonal antibody clone R31 (antibody, V domains shown) VH: QVQLQQSGAELVRPGTSVKISCKASYTFTNYWLAWVKQRPGHGLEWIGDIYPGGAYTNFNEKFKGKATLTADTSSSTAYMQLSSLTSEDSAVYFCARDGHYGYAMDYWGQGTSVTVSS VL: DIVMTQAAFSNPVTLGTSASISCRSSKSLLHSNGITYLYWYLQKPGQSPQLLIYQMSDLASGVPDRFSSSGSGTDFTLRISRVEAEDVGVYYCAQNLELPRTFGGGIKLEIK	binds		
mouse anti-SARS-CoV-2 spike monoclonal antibody clone R52 (antibody, V domains shown) VH: QIQLVQSGPELKKPGETVKISCKASGYTFTNYGMNWVKQAPGNGLRWMGWINTYTREPSYAADFKGRFAFSLETSARAAYLQINNLKNEDTATYFCARNGAMDYWGQGTSVTVSS VL: not shown	binds		
mouse anti-SARS-CoV-2 spike monoclonal antibody clone S1D7 (antibody, V domains shown) VH: QVQLQQSGAELVKPGASVKLSCKASGYTFTSYYIYWMKQRPGQGLEWIGEINPNNGGTNFNEKFKSKATLTVDKSSSTAYMQLSSLTSEDSAVYYCTRGHSDYWGQGTTLTVSS VL: DIVLTQSPASLAVSLGQRATISCRASESVEYYGTGLMQWYQQKPGQPPKLLIYAASNVESGVPARFSGSGSGTDFSLNIHPVEEDDIAMYFCQQTRKVPYTFGGGTKLEIK		binds	
mouse anti-SARS-CoV-2 spike monoclonal antibody clone S3D8 (antibody, V domains shown) VH: QVQLQQSGAELVKPGASVKLSCKASGYTFTSYYMYWMKQRPGQGLEWIGEINPSNGGTNFNEKFKSKATLTVDKSSSTAYMQLSSLTSEDSAVYYCTIFITRDAMDYWGQGTSVTVSS VL: QIVLTQSPAIMSASPGEKVTLTCSASSSVSSSYLFWYQQKPGSSPKLWIYTTSNLASGVPARFSGSGSGTSYSLTISSMEAEDAASYFCHQWSSYPPTFGAGTKLELK		binds	
